# B1: visfatin: murine visfatin (ALEXIS), adipocytokine that functions as an insulin analog (protein, UniProt Q99KQ4 1-491, looked up)
# Nicotinamide …: MNAAAEAEFNILLATDSYKVTHYKQYPPNTSKVYSYFECREKKTENSKVRKVKYEETVFYGLQYILNKYLKGKVVTKEKIQEAKEVYREHFQDDVFNERGWNYILEKYDGHLPIEVKAVPEGSVIPRGNVLFTVENTDPECYWLTNWIETILVQSWYPITVATNSREQKKILAKYLLETSGNLDGLEYKLHDFGYRGVSSQETAGIGASAHLVNFKGTDTVAGIALIKKYYGTKDPVPGYSVPAAEHSTITAWGKDHEKDAFEHIVTQFSSVPVSVVSDSYDIYNACEKIWGEDLRHLIVSRSTEAPLIIRPDSGNPLDTVLKVLDILGKKFPVTENSKGYKLLPPYLRVIQGDGVDINTLQEIVEGMKQKKWSIENVSFGSGGALLQKLTRDLLNCSFKCSYVVTNGLGVNVFKDPVADPNKRSKKGRLSLHRTPAGNFVTLEEGKGDLEEYGHDLLHTVFKNGKVTKSYSFDEVRKNAQLNIEQDVAPH
# System: keratin 1
# Test: keratin 1 expression by Western blot in keratinocytes
# Assay type: cell-based, mice
# Conditions: visfatin 0.0001 μg/ml or L-alpha 100 ng/ml, 24 hours after calcium-induced differentiation
# From the text: Medium A and B are both EMEM eagle's minimal essential medium from Biological Industries (Israel) containing 8% CHELEX™ treated fetal bovine serum. CHELEX™ is a strong chelator which binds free Ca^2+ and Mg^2+ ions to prevent these ions from being bioavailable to the cultured cells.
# Primary skin keratinocytes isolated from the tails of adult mice (7-10 months up to 2 years) were maintained in medium A (MEM) as described above. After 5 days in (medium A), the growth medium in half of the cultured plates was replaced with medium B (as described above)
# Next visfatin or L-alpha were each individually added to cells cultured in medium A (FIG. 19A) and cells cultured in medium B (FIG. 19B) as indicated in FIG. 19. The final concentration in the culture medium of visfatin was 0.0001 μg/ml visfatin. The final concentration in the culture medium of L-alpha was 100 ng/ml.
# Cell differentiation was induced by elevating calcium from 0.05 mM to 0.12 mM as described above. Twenty-four (24) hours after differentiation cells were harvested and Western Blot analysis was performed. […] Keratin 1 expression was then quantified using standard densitometric methods […]
# Cell differentiation was then induced by elevating calcium levels in the culture medium from 0.05 mM to 0.12 mM. […] Expression was assessed using standard Western blotting and densitometry techniques.
molecule,measurement,setting,value
B1,expression of keratin 1,medium A (no KCl),decreased relative to the control sample
same,expression of keratin 1,medium B (KCl 0.4 mg/ml),not significantly altered

# Source: patent US20100310542A1, “Pharmaceutical Compositions for treating wouds and related methods” (HEALOR LTD., priority 2007, published 2010)
